# Data: patent US20180169261A1 (Seagen, published 2018)
# B1: h7G3EC-SGD-1910 (antibody, human IgG1, kappa, V domains shown)
# VH: QVQLVQSGAEVKKPGASVKMSCKASGYTFTDYYMKWVKQAPGQGLEWIGDIIPSNGATFYNQKFKGKATLTVDRSISTAYMHLNRLRSDDTAVYYCTRSHLLRASWFAYWGQGTLVTVSS
# VL: DFVMTQSPDSLAVSLGERATINCKSSQSLLNSGNQKNYLTWYLQKPGQPPKLLIYWASTRESGVPDRFSGSGSGTDFTLTISSLQAEDVAVYYCQNDYSYPYTFGQGTKLEIKR
# modifications: SGD-1910 PBD drug-linker on the thiol of Cys 239 (EU index); average drug load about 2 per antibody
# B2: h7G3, G1 (antibody, V domains shown)
# VH: B1 VH
# VL: B1 VL
# notes: also called humanized 7G3, IgG1
# B3: HCLA (antibody, V domains shown)
# VH: B1 VH
# VL: B1 VL
# notes: also called lead humanized 7G3 antibody; vHC/vLA
# B4: h7G3EC (antibody, human IgG1, kappa, V domains shown)
# VH: B1 VH
# VL: B1 VL
# notes: EC means cysteine at position 239 (EU index) of the IgG1 heavy chain; Unconjugated antibody; also called humanized 7G3 with S239C
# B5: murine 7G3 antibody (antibody, V domains shown)
# VH: EVQLQQSGPELVKPGASVKMSCKASGYTFTDYYMKWVKQSHGKSLEWIGDIIPSNGATFYNQKFKGKATLTVDRSSSTAYMHLNSLTSEDSAVYYCTRSHLLRASWFAYWGQGTLVTVSA
# VL: DFVMTQSPSSLTVTAGEKVTMSCKSSQSLLNSGNQKNYLTWYLQKPGQPPKLLIYWASTRESGVPDRFTGSGSGTDFTLTISSVQAEDLAVYYCQNDYSYPYTFGGGTKLEIKR
# notes: Murine monoclonal antibody; also called m7G3
# B6: Chimeric 7G3 (antibody, V domains shown)
# VH: B5 VH
# VL: B5 VL
# Experiments:
# human CD123 [1] = molecular target: T1, human CD123 (human, UniProt P26951 19-378); experiment: cell-based or functional assay
# human CD123 [2] = molecular target: T1, human CD123; experiment: cell-based or functional assay; remark: listed apart in the source
# human CD123 [3] = molecular target: T1, human CD123; experiment: cell-based or functional assay; remark: listed apart in the source
# cynomolgus CD123 = molecular target: T2, cynomolgus CD123 (cynomolgus); experiment: saturation binding of AlexaFluor-488 labeled mAb, flow cytometry on HEK293F cells expressing cyno CD123; apparent Kd
# T2 construct: whole, on cells; Expressed on transfected HEK-293F cells; also called cyno CD123
# Method: (§1) One hundred thousand CD123-positive cells (HEK-293F cells transfected to express human or cynomologus CD123) were transferred to 96-well plates. […] Cells were pelleted by centrifugation, washed 3 times with a PBS+1% BSA solution, and resuspended in 125 μL of PBS+1% BSA. Fluorescence was analyzed using a flow cytometer, and the percent of saturated fluorescent signal was used to determine percent bound and to subsequently calculate apparent Kd.
# human CD123 [4] = molecular target: T1, human CD123; experiment: saturation binding of AlexaFluor-488 labeled mAb, flow cytometry on HEK293F cells expressing human CD123; apparent Kd
# Method: as §1
# human CD123 [5] = molecular target: T1, human CD123; experiment: competition with 5 nM AlexaFluor-488 m7G3, flow cytometry on Molm-13 AML cells
# Method: Cells were centrifuged, washed 3 times with PBS, and resuspended in 125 μL of a PBS+1% BSA solution. Fluorescence was analyzed using a flow cytometer, and the percent of saturated fluorescent signal was used to determine percent labeled 7G3 mAb bound. The EC50 was extrapolated by fitting the data to a sigmoidal dose-response curve with variable slope.
# T1 sequence (P26951 19-378): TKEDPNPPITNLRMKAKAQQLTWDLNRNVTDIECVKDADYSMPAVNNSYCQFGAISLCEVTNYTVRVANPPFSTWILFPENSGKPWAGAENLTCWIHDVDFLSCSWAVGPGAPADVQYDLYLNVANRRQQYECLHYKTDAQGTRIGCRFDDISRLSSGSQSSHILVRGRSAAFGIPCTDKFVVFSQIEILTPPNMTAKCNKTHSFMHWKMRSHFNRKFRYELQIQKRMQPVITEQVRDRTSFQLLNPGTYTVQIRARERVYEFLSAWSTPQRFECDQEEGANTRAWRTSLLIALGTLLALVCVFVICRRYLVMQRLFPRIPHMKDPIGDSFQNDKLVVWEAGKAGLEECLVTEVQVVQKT
binder,measurement,setting,value
B1,"mean IC50, in vitro cytotoxicity, responsive CD123-positive AML cell lines",human CD123 [1],7 ng/mL
same,"mean IC50, in vitro cytotoxicity, responsive primary AML samples",human CD123 [1],1 ng/mL
same,"IC50, in vitro cytotoxicity (CelltiterGlo, 96 h), GDM-1 AML cells",human CD123 [2],3.5 ng/mL
same,"IC50, in vitro cytotoxicity (CelltiterGlo, 96 h), HNT-34 AML cells",human CD123 [2],0.35 ng/mL
same,"IC50, in vitro cytotoxicity (CelltiterGlo, 96 h), KG1-INV AML cells",human CD123 [2],0.6 ng/mL
same,"IC50, in vitro cytotoxicity (CelltiterGlo, 96 h), KG-1 AML cells",human CD123 [2],0.8 ng/mL
same,"IC50, in vitro cytotoxicity (CelltiterGlo, 96 h), Kasumi-1 AML cells",human CD123 [2],1 ng/mL
same,"IC50, in vitro cytotoxicity (CelltiterGlo, 96 h), MV4-11 AML cells",human CD123 [2],0.02 ng/mL
same,"IC50, in vitro cytotoxicity (CelltiterGlo, 96 h), Molm-13 AML cells",human CD123 [2],0.08 ng/mL
same,"IC50, in vitro cytotoxicity (CelltiterGlo, 96 h), NOMO-1 AML cells",human CD123 [2],38 ng/mL
same,"IC50, in vitro cytotoxicity (CelltiterGlo, 96 h), SKM-1 AML cells",human CD123 [2],2.5 ng/mL
same,"IC50, in vitro cytotoxicity (CelltiterGlo, 96 h), TF1a AML cells",human CD123 [2],> 1000 ng/mL
same,"IC50, in vitro cytotoxicity (CelltiterGlo, 96 h), THP-1 AML cells",human CD123 [2],24 ng/mL
same,"IC50, in vitro cytotoxicity (Annexin V/PI flow cytometry), primary AML sample FH016",human CD123 [3],1.4 ng/mL
same,"IC50, in vitro cytotoxicity (Annexin V/PI flow cytometry), primary AML sample FH018",human CD123 [3],0.12 ng/mL
same,"IC50, in vitro cytotoxicity (Annexin V/PI flow cytometry), primary AML sample FH019",human CD123 [3],> 2.5 ng/mL
same,"IC50, in vitro cytotoxicity (Annexin V/PI flow cytometry), primary AML sample FH020",human CD123 [3],2.5 ng/mL
same,"IC50, in vitro cytotoxicity (Annexin V/PI flow cytometry), primary AML sample FH021",human CD123 [3],1.6 ng/mL
same,"IC50, in vitro cytotoxicity (Annexin V/PI flow cytometry), primary AML sample FH022",human CD123 [3],0.56 ng/mL
same,"IC50, in vitro cytotoxicity (Annexin V/PI flow cytometry), primary AML sample FH023",human CD123 [3],0.06 ng/mL
same,"IC50, in vitro cytotoxicity (Annexin V/PI flow cytometry), primary AML sample FH024",human CD123 [3],2 ng/mL
same,"IC50, in vitro cytotoxicity (Annexin V/PI flow cytometry), primary AML sample FH025",human CD123 [3],6.5 ng/mL
same,"IC50, in vitro cytotoxicity (Annexin V/PI flow cytometry), primary AML sample FH026",human CD123 [3],0.22 ng/mL
same,"IC50, in vitro cytotoxicity (Annexin V/PI flow cytometry), primary AML sample FH027",human CD123 [3],> 2.5 ng/mL
same,"IC50, in vitro cytotoxicity (Annexin V/PI flow cytometry), primary AML sample FH028",human CD123 [3],2 ng/mL
same,"IC50, in vitro cytotoxicity (Annexin V/PI flow cytometry), primary AML sample FH029",human CD123 [3],0.46 ng/mL
same,"IC50, in vitro cytotoxicity (Annexin V/PI flow cytometry), primary AML sample FH034",human CD123 [3],0.22 ng/mL
same,"IC50, in vitro cytotoxicity (Annexin V/PI flow cytometry), primary AML sample FH036",human CD123 [3],0.16 ng/mL
same,"IC50, in vitro cytotoxicity (Annexin V/PI flow cytometry), primary AML sample FH037",human CD123 [3],0.68 ng/mL
same,"IC50, in vitro cytotoxicity (Annexin V/PI flow cytometry), primary AML sample FH038",human CD123 [3],0.18 ng/mL
B2,Kd,cynomolgus CD123,5.3 nM
same,Kd,human CD123 [4],2.7 nM
B3,EC50,human CD123 [5],2.6 nM
B4,Kd,cynomolgus CD123,6.6 nM
same,Kd,human CD123 [4],2.7 nM
B5,EC50,human CD123 [5],4.3 nM
same,Kd,cynomolgus CD123,4.6 nM
same,Kd,human CD123 [4],2.7 nM
B6,EC50,human CD123 [5],2 nM
same,Kd,cynomolgus CD123,4.7 nM
same,Kd,human CD123 [4],2.7 nM
